Assay in all cases: TIRF microscopy binding assay
For experiment [1], the target named is porcine double-stabilized microtubules (dsMTs) (porcine) (UniProt P02550).
Experiment [2] shares this target. This is another data set of the same source.
Experiment [3] deals with AspN-treated double-stabilized microtubules (β-tubulin C-tail removed) (porcine) (UniProt P02550).

Percent reduction of the fluorescence signal (against full-length TTLL11) and percent lower fluorescence signal than on intact MTs data for 3 molecules are collected here from doi:10.1101/2025.02.24.639257.

Like-named read-outs stand apart in the source and are kept apart here.

As for “human TTLL11 I594W mutant (from UniProt Q8NHH1 1-710) (enzyme)”, the percent reduction of the fluorescence signal (against full-length TTLL11) in experiment [1] came to 80%; in experiment [2], 95%. As to “human TTLL11 R601E mutant (from UniProt Q8NHH1 1-710) (enzyme)”, the percent reduction of the fluorescence signal (against full-length TTLL11) in experiment [1] came out at 60%.

B1: human TTLL11 (tubulin tyrosine ligase-like 11), full length (enzyme)
chain: MRRGSSESELAARWEAEAVAAAKAAAKAEAEATAETVAEQVRVDAGAAGEPECKAGEEQPKVLAPAPAQPSAAEEGNTQVLQRPPPTLPPSKPKPVQGLCPHGKPRDKGRSCKRSSGHGSGENGSQRPVTVDSSKARTSLDALKISIRQLKWKEFPFGRRLPCDIYWHGVSFHDNDIFSGQVNKFPGMTEMVRKITLSRAVRTMQNLFPEEYNFYPRSWILPDEFQLFVAQVQMVKDDDPSWKPTFIVKPDGGCQGDGIYLIKDPSDIRLAGTLQSRPAVVQEYICKPLLIDKLKFDIRLYVLLKSLDPLEIYIAKDGLSRFCTEPYQEPTPKNLHRIFMHLTNYSLNIHSGNFIHSDSASTGSKRTFSSILCRLSSKGVDIKKVWSDIISVVIKTVIALTPELKVFYQSDIPTGRPGPTCFQILGFDILLMKNLKPILLEVNANPSMRIEHEHELSPGVFENVPSLVDEEVKVAVIRDTLRLMDPLKKKRENQSQQLEKPFAGKEDALDGELTSAPDCNANPEAHLPSICLKQVFPKYAKQFNYLRLVDRMANLFIRFLGIKGTMKLGPTGFRTFIRSCKLSSSSLSMAAVDILYIDITRRWNSMTLDQRDSGMCLQAFVEAFFFLAQRKFKMLPLHEQVASLIDLCEYHLSLLDEKRLVCGRGVPSGGRPPHRGPPQEPSPSAQPAGDNPPPRTSCANKLSHPRHTLS
modifications: Janelia 549-HALO probe on the HALO tag (in the TIRF assay)
The molecule B1 yielded a percent lower fluorescence signal than on intact MTs in experiment [3] of 50%.
